What was measured:
Assay type in all cases: biochemical
Substrate specificity [1] = conditions: activity with respect to 5′ AMP = 100%
From the text: (§1) It is reported that adenosine deaminase derived from Streptomyces aureofaciens has a wide range of substrate property, for example, catalytic ability of AMP (non-patent document 2). Taken this into consideration, in order to confirm whether deaminase derived from Streptomyces murinus obtained in the above-mentioned method is AMP-deaminase or adenosine-deaminase, the substrate specificity was investigated. Note here that the relative activity, when the enzyme activity with respect to 5′ AMP is defined as 100% is represented. […] In particular, the enzyme acted on 5′dAMP, ADP and ATP favorably. From the above-mentioned results, it was confirmed that the deaminase derived from Streptomyces murinus obtained by the above-mentioned method was AMP deaminase. Furthermore, it was determined that the enzyme was able to be employed preferably in a reaction using 5′dAMP, ADP and ATP as a substrate.
In order to determine whether the deaminase derived from transformant (SAD-1) obtained as mentioned above was AMP deaminase or Adenosine-deaminase, the substrate specificity was investigated. Note here that relative activities when the enzyme activity with respect to 5′ AMP was defined as 100% are represented. […] In particular, the enzyme acted on 5′-dAMP, ADP and ATP favorably. From the above-mentioned results, it was confirmed that deaminase derived from transformant (SAD-1) was similar to AMP deaminase derived from Streptomyces murinus and it was AMP deaminase. Furthermore, it was determined that the enzyme can be preferably used with respect to the reaction using 5′-dAMP, ADP and ATP as a substrate.

Substrate specificity [2] = assay: Substrate specificity
From the text: as §1, with “From the above-mentioned results, it was confirmed that the deaminase derived from Streptomyces murinus obtained by the above-mentioned method was AMP deaminase.” left out
Then, in the genus Streptomyces in the stored strains of Amano Enzyme Inc., screening of AMP deaminase producing strain was carried out. […] Furthermore, the residual activity was measured when the activity obtained when treatment was not carried out was defined as 100%. […]
In order to determine whether the deaminase derived from transformant (SAD-1) obtained as mentioned above was AMP deaminase or Adenosine-deaminase, the substrate specificity was investigated. […] Furthermore, it was determined that the enzyme can be preferably used with respect to the reaction using 5′-dAMP, ADP and ATP as a substrate.

Substrate specificity [3] = assay: Substrate specificity; remark: listed apart in the source

B1: AMP deaminase derived from Streptomyces murinus: thermostable AMP deaminase enzyme produced by Streptomyces murinus IFO14802; amino acid sequence SEQ ID NO: 1 (protein, listed as Streptomyces murinus)
chain: APPPRQATAAEARTDAYLRSVKDRPAALRAFFRQLPKGGDLHNHLSGAVNTDYLIELAAEDGLCIDATMTAVPSPCGPGTRPAADARTDRAFHDAIVRAWSMQDFPPDENGHDHFFDTFGKFGEVTWRHRGKLLAQVADTVVANNQSYLETMVTPASDGAKQLADQVGWDADLTALHRKLAAGGKLDKLVADARKEADDGDAEFRATEHCGTAKARPACGLTVRWISQASRGSSPVRVFTQLDLGMRLAEADSRFVAVNLVQPEDWDSSLENYSLQMRMVGYLRTVYPKAHVTLHAGELWPGLVKPEALKFHIAEAVDIAHTQRVGHGVDLVHEDNWQRTARTMAARQIAVEVPFSSNAQILGVKGAEHPFTTYRRYGVPVVLATDDPGVSRIDISHEYQYAAATYGLGYPELKDLARASLQYAFLPGASLWQGNPTAQGYHPVAACRAERPGQPVHSAACRRLLDGSARARLEWRQEAAFAAFERAHARG
Which results are given for B1?
action on substrate 2′AMP (Substrate specificity [1]): did not act on; action on substrate 3′5′-cyclic AMP (cAMP) (Substrate specificity [1]): also acted on; action on substrate 3′AMP (Substrate specificity [1]): also acted on; action on substrate 5′ AMP (Substrate specificity [1]): most favorably; action on substrate 5′dAMP (Substrate specificity [1]): favorably; action on substrate ADP (Substrate specificity [1]): favorably; action on substrate ATP (Substrate specificity [1]): favorably; action on substrate adenine (Substrate specificity [1]): did not act on; action on adenosine as fraction of the action on 5′-AMP (Substrate specificity [2]): 1/10; action on substrate Adenosine (Substrate specificity [2]; activity with respect to 5′ AMP = 100%): also acted on and weak; action on substrate 5′-UMP (Substrate specificity [3]): did not act on
